Test results taken from US20180185504A1.
Each block holds one binder with its values, some of them ahead of it.

Assays:
[1] = biological target: human prolactin (PRL) (human) (UniProt P01236); experiment: ELISA: dimeric PRLR (3.38 pM to 200 nM) on plate-coated human PRL (1 µg/mL), HRP anti-Fc-gamma detection
[2] = biological target: mouse PRLR construct with an HA tag on HEK293/mPRLR cells (mouse) (UniProt Q08501); experiment: FACS on HEK293/mPRLR cells
Sequence of mouse PRLR construct with an HA tag on HEK293/mPRLR cells (mouse) (Q08501 20-608): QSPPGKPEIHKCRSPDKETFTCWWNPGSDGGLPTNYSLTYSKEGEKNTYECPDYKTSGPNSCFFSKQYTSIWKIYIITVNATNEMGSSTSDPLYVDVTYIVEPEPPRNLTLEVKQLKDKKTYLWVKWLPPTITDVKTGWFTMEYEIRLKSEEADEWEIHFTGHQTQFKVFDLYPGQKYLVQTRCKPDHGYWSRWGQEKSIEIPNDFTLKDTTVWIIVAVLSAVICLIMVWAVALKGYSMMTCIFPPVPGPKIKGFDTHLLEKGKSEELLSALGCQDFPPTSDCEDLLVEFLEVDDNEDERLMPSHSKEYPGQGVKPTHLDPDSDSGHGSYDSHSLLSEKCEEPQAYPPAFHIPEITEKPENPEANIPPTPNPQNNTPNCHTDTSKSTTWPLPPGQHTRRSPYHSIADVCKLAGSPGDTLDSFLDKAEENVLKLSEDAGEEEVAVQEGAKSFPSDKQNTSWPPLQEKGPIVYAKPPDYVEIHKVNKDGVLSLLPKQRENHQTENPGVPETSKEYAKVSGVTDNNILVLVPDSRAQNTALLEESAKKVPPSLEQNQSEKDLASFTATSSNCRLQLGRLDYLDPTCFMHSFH

Sequence of human prolactin (PRL) (human) (P01236 29-227 limits assumed): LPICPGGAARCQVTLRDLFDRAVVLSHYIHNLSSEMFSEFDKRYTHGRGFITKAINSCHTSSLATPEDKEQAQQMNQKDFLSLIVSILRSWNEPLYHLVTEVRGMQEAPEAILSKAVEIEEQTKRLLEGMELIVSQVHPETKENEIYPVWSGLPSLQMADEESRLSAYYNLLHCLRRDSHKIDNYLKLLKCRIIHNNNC

- EC50 [1]: 4.9 nM
B1: dimeric form of human PRLR (Example 12 ELISA) (Fc fusion, part only; not given: Dimerising Fc part, part only)
chain, part: QLPPGKPEIFKCRSPNKETFTCWWRPGTDGGLPTNYSLTYHREGETLMHECPDYITGGPNSCHFGKQYTSMWRTYIMMVNATNQMGSSFSDELYVDVTYIVQPDPPLELAVEVKQPEDRKPYLWIKWSPPTLIDLKTGWFTLLYEIRLKPEKAAEWEIHFAGQQTEFKILSLHPGQKYLVQVRCKPDHGYWSAWSPATFIQIPSDFTMND

- FACS Cell Binding (Fold Above Background) [2]: 56 fold
B2: H1H6801P (antibody, human IgG1, V domains shown)
VH: QVQLQQSGPGLVKPSQTLSLTCVISGDSVSSNTAWNWVRQSPSRGLEWLGRTYYRSKWYNDYAVSVKSRITINPDTSKNQFSLLMNSVTPEDTAVYYCARVVRGLNYFDYWGQGTLVTVSS
VL: DIVMTQSPDSLAVSLGERATINCKSSQSVLYNSNNKNYLAWYQQKPGQPPKLLIYWSSSRESGVPDRFSGSGSGTDFTLTISGLQAEDVAIYYCQQYSTIPYTFGQGTKLEIK
